For assay [1], the target named is dog aminopeptidase N ectodomain fused with the Fc domain of human IgG (dog (Canis lupus familiaris)) (UniProt P79143). The assay can be described thus: SPR; hFc-tagged APN from concentrated supernatant captured on a protein A sensor chip (>1000 RU); serially diluted RBD flowed over in PBST; BIAcore 8K, single-cycle mode; 1:1 Langmuir model; mean ± SD of three experiments.

In assay [2] the target is chicken aminopeptidase N ectodomain fused with the Fc domain of human IgG (chicken (Gallus gallus)) (UniProt O57579). Described as above.
Sequence of chicken aminopeptidase N ectodomain fused with the Fc domain of human IgG (chicken (Gallus gallus)) (O57579 32-972): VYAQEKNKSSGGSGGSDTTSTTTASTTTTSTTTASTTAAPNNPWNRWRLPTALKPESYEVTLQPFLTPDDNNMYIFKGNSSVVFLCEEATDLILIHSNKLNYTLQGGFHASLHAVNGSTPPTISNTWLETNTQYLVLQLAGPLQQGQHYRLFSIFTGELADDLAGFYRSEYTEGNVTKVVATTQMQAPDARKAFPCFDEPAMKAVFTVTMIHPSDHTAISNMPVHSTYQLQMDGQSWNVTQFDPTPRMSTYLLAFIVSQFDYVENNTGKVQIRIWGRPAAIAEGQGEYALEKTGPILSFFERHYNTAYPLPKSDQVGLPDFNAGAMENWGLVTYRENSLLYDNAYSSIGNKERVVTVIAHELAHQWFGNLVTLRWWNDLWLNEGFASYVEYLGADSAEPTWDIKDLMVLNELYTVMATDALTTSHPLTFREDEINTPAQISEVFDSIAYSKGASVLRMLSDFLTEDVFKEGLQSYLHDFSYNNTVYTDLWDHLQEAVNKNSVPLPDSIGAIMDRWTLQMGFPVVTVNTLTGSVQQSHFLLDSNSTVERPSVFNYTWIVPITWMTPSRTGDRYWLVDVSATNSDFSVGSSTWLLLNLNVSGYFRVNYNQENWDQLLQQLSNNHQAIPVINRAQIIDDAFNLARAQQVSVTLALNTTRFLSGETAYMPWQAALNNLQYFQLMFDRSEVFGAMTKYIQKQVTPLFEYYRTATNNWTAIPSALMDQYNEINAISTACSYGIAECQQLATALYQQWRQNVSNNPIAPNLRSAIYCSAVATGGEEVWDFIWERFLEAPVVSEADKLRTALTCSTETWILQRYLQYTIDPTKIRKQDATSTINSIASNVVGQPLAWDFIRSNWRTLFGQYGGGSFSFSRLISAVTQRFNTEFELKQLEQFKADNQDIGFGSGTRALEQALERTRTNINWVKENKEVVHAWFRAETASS
Assay [3] concerns the target pig aminopeptidase N ectodomain fused with the Fc domain of human IgG (pig (Sus scrofa)) (UniProt P15145). The assay is described as above.
Assay [4] concerns the target PDCoV RBD (receptor-binding domain of the porcine deltacoronavirus spike protein). The assay can be described thus: SPR.

We go through ten substances from paper PMC11741606.

Sequence of pig aminopeptidase N ectodomain fused with the Fc domain of human IgG (pig (Sus scrofa)) (P15145 33-963): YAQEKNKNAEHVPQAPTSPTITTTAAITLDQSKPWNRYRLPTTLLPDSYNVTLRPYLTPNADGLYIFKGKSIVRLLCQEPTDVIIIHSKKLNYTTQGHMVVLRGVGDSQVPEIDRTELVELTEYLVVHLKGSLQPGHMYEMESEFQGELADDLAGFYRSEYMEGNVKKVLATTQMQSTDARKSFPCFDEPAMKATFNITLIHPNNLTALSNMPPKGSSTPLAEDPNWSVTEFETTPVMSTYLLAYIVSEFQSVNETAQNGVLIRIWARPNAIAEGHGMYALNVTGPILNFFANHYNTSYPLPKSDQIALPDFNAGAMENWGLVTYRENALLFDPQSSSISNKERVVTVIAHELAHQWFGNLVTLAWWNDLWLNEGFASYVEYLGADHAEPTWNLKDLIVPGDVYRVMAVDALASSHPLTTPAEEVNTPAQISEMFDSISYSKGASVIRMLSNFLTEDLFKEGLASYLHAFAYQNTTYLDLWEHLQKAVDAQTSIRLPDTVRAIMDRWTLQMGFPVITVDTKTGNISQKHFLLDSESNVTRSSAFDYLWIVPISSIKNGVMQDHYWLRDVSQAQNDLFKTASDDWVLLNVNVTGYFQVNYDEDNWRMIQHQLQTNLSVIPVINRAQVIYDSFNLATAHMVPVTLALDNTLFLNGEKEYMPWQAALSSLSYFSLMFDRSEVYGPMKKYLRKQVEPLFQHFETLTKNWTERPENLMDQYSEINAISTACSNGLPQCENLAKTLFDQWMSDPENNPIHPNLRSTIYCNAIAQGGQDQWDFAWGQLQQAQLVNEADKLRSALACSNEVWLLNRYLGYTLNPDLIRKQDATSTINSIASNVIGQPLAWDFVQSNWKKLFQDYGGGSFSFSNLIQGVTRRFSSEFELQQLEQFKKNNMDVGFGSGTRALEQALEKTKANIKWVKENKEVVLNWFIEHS

With “PDCoV RBD (receptor-binding domain of the porcine deltacoronavirus spike protein) (domain or fragment)”, the Kd in assay [1] was determined as 0.84 µM; in assay [2], 3.03 µM; in assay [3], 12.8 µM.

Take “TGEV RBD (receptor-binding domain of the transmissible gastroenteritis coronavirus spike protein) (domain or fragment)”: the equilibrium dissociation constant (Kd) in assay [1] turned out to be 0.02 µM; in assay [3] it was 2.77 µM.

Substance “dog aminopeptidase N ectodomain fused with the Fc domain of human IgG (from UniProt P79143) D750E” gave a Kd in assay [4] of 0.148 µM.

In turn, “dog aminopeptidase N ectodomain fused with the Fc domain of human IgG (from UniProt P79143) E757D” displayed a Kd in assay [4] of 0.423 µM. Compared with the last substance, the Kd is about 2.9-fold higher.

Turning to “dog aminopeptidase N ectodomain fused with the Fc domain of human IgG (from UniProt P79143) H751R”, the Kd in assay [4] was 1.45 µM.

Substance “dog aminopeptidase N ectodomain fused with the Fc domain of human IgG (from UniProt P79143) Q753E” came in with a Kd in assay [4] of 0.783 µM.

In assay [4], “dog aminopeptidase N ectodomain fused with the Fc domain of human IgG (from UniProt P79143) R325N” yielded a dissociation constant (Kd) of 10.5 µM.

Turning to “dog aminopeptidase N ectodomain fused with the Fc domain of human IgG (from UniProt P79143) T754N”, the Kd in assay [4] was 4.06 µM. Against the preceding substance, the Kd is about 2.6-fold lower.

The substance “dog aminopeptidase N ectodomain fused with the Fc domain of human IgG (from UniProt P79143) Y375F” registered a Kd in assay [4] of 0.35 µM. Compared with the last substance, the Kd is about 12-fold lower.

In turn, “dog aminopeptidase N ectodomain fused with the Fc domain of human IgG (from UniProt P79143) Y797H” showed a Kd in assay [4] of 1.22 µM.
